# Data from publication PMC9616921.
# Columns and labels:
# [1] = biological target: minimal mature VEGF-C refolded from E. coli inclusion bodies (human); assay: SEC; refolded, dialysed and concentrated material on Superdex 75 10/300 GL in PBS, 0.5-0.6 mL/min; calibrated with BSA, carbonic anhydrase and RNaseA; dimeric fractions 11.5-13.5 mL, monomeric fractions 13.5-15.5 mL
# [2] = IP of 35S-labelled 293T supernatants and lysates, SDS-PAGE; conditions: glycan lost; control: wild type
stoichiometry N [1],Molecule,expression_or_secretion [2]
2,minimal mature VEGF-C refolded from E. coli inclusion bodies (domain or fragment),–
–,"VEGF-C: N175,205W (protein) parent chain: MHLLGFFSVACSLLAAALLPGPREAPAAAAAFESGLDLSDAEPDAGEATAYASKDLEEQLRSVSSVDELMTVLYPEYWKMYKCQLRKGGWQHNREQANLNSRTEETIKFAAAHYNTEILKSIDNEWRKTQCMPREVCIDVGKEFGVATNTFFKPPCVSVYRCGGCCNSEGLQCMNTSTSYLSKTLFEITVPLSQGPKPVTISFANHTSCRCMSKLDVYRQVHSIIRRSLPATLPQCQAANKTCPTNYMWNNHICRCLAQEDFMFSSDAGDDSTDGFHDICGPNKELDEETCQCVCRAGLRPASCGPHKELDRNSCQCVCKNKLFPSQCGANREFDENTCQCVCKRTCPRNQPLNPGKCACECTESPQKCLLKGKKFHHQTCSCYRRPCTNRQKACEPGFSYSEEVCRCVPSYWKRPQMS",abolishes
–,"VEGF-C: N175,205Q (protein) parent chain: MHLLGFFSVACSLLAAALLPGPREAPAAAAAFESGLDLSDAEPDAGEATAYASKDLEEQLRSVSSVDELMTVLYPEYWKMYKCQLRKGGWQHNREQANLNSRTEETIKFAAAHYNTEILKSIDNEWRKTQCMPREVCIDVGKEFGVATNTFFKPPCVSVYRCGGCCNSEGLQCMNTSTSYLSKTLFEITVPLSQGPKPVTISFANHTSCRCMSKLDVYRQVHSIIRRSLPATLPQCQAANKTCPTNYMWNNHICRCLAQEDFMFSSDAGDDSTDGFHDICGPNKELDEETCQCVCRAGLRPASCGPHKELDRNSCQCVCKNKLFPSQCGANREFDENTCQCVCKRTCPRNQPLNPGKCACECTESPQKCLLKGKKFHHQTCSCYRRPCTNRQKACEPGFSYSEEVCRCVPSYWKRPQMS",abolishes
